Source: patent US7807397B2, “Diagnostic method for disorders using copeptin” (B.R.A.H.M.S Aktiengesellschaft, priority 2004, dated 2010)
Where two headings read alike, the source gives them in different places. Where no end group is shown, it is not given here.

Legend:
[1] = test system: blood platelets; details: reference [21]; cited from earlier work
[2] = reference [14]; cited from earlier work
[3] = type: in vitro ADME, human
Description: The following assay buffer was used: 100 mM sodium phosphate, 150 mM NaCl, 5% bovine serum albumin, 0.1% unspecified sheep IgG, 0.1% sodium azide, pH 7.4.
As a standard material chemically synthesized peptide (peptide PAY 33) was used which corresponds to positions 132-164 of vasopressin-neurophysin 2-copeptin precursor. The standard was diluted in normal horse serum (Sigma). […]
In the test tubes 100 μl of standards or sample as well as 100 μl of assay buffer was pipetted. The tubes were incubated for two hours at 22° C. using gentle rotation. After washing 4 times with 1 ml of washing buffer (0.1% Tween 20), the supernatant was discarded. Then 200 μl of assay buffer, containing 1 million RLU (relative light units) of MA70-tagged antibody was added and incubated for a further two hours under gentle rotation at 22° C. After washing 4 times with 1 ml of washing buffer (0.1% Tween 20), the chemiluminescence bound to the tube was determined in a luminometer (Berthold, LB952T, basic reagents Brahms AG).
Using the software MULTICALC® (Spline Fit), the concentrations of the samples were determined.
The term copeptin immunoreactivity describes the amount of substrate detected by the developed sandwich immunoassay. The sandwich immunoassay uses antibodies raised against positions 132-147 and 149-164 of the vasopressin-neurophysin 2-copeptin-precursor for detection of the substrate. A typical standard curve for the developed assay is described in FIG. 1. Using the assay concentrations above 50 pg/ml copeptin immunoreactivity in plasma or serum can be determined quantitatively.

| Compound | fraction bound to blood platelets [1] | half-life in vivo [2] | Recovery (%) ([3]; plasma (n = 5), storage 1 d/4° C.) | Recovery (%) ([3]; plasma (n = 5), storage 1 d/RT) | Recovery (%) ([3]; plasma (n = 5), storage 2 d/4° C.) | Recovery (%) ([3]; plasma (n = 5), storage 2 d/RT) | Recovery (%) ([3]; serum (n = 3), storage 1 d/4° C.) | Recovery (%) ([3]; serum (n = 3), storage 1 d/RT) | Recovery (%) ([3]; serum (n = 3), storage 2 d/4° C.) | Recovery (%) ([3]; serum (n = 3), storage 2 d/RT) |
| --- | --- | --- | --- | --- | --- | --- | --- | --- | --- | --- |
| NC(=O)CC[C@@H]1NC(=O)[C@H](Cc2ccccc2)NC(=O)[C@H](Cc2ccc(O)cc2)NC(=O)[C@@H](N)CSSC[C@@H](C(=O)N2CCC[C@H]2C(=O)N[C@@H](CCCN=C(N)N)C(=O)NCC(N)=O)NC(=O)[C@H](CC(N)=O)NC1=O [vasopressin] | More than 90% | 24 min |  |  |  |  |  |  |  |  |
| copeptin: C-terminal glycoprotein of the VP prohormone, 39 amino acids plus sugar moiety; measured as endogenous copeptin immunoreactivity (ASDRSNATQLDGPAGALLLRLVQLAGAPEPFEPAQPDAY; also: glycosylated (sugar moiety); UniProt P01185 126-164, looked up) |  |  | 103.4% | 99.9% | 101.6% | 104.9% | 98.0% | 94.1% | 99.2% | 103.7% |
